# Patent publication US20150344570A1 (published 2015)
# B1: GpH7-A5/GpH7-B3 variant Y296_06M/GpL16-k0 (heterodimerized antibody, He Ab) (antibody, human IgG1, kappa)
# heavy 1: not shown
# heavy 2: not shown
# light: DIVMTQSPLSLPVTPGEPASISCQASESLVHSNRNTYLHWYLQKPGQSPQLLIYKVSNRFSGVPDRFSGSGSGTDFTLKISRVEAEDVGVYYCSQNTHVPPTFGQGTKVEIERTVAAPSVFIFPPSDEQLKSGTASVVCLLNNFYPREAKVQWKVDNALQSGNSQESVTEQDSKDSTYSLSSTLTLSKADYEKHKVYACEVTHQGLSSPVTKSFNRGEC
# notes: Anti-glypican-3 IgG1; alteration only in the GpH7-B3 (K439E) chain; other H chain is GpH7-A5 (D356K/H435R)
# B2: GpH7-A5/GpH7-B3 variant Y296_20W/GpL16-k0 (heterodimerized antibody, He Ab) (antibody, human IgG1, kappa)
# heavy 1: not shown
# heavy 2: not shown
# light: B1 light
# notes: as for B1
# B3: GpH7-A5/GpH7-B3 variant Y296_13S/GpL16-k0 (heterodimerized antibody, He Ab) (antibody, human IgG1, kappa)
# heavy 1: not shown
# heavy 2: not shown
# light: B1 light
# notes: as for B1
# B4: GpH7-A5/GpH7-B3 variant Y300_08L/GpL16-k0 (heterodimerized antibody, He Ab) (antibody, human IgG1, kappa)
# heavy 1: not shown
# heavy 2: not shown
# light: B1 light
# notes: as for B1
# B5: GpH7-A5/GpH7-B3 variant Y296_18N/GpL16-k0 (heterodimerized antibody, He Ab) (antibody, human IgG1, kappa)
# heavy 1: not shown
# heavy 2: not shown
# light: B1 light
# notes: as for B1
# B6: GpH7-B3 variant Y300_02A/GpL16-k0 (homodimerized antibody, Ho Ab) (antibody, human IgG1, kappa)
# heavy: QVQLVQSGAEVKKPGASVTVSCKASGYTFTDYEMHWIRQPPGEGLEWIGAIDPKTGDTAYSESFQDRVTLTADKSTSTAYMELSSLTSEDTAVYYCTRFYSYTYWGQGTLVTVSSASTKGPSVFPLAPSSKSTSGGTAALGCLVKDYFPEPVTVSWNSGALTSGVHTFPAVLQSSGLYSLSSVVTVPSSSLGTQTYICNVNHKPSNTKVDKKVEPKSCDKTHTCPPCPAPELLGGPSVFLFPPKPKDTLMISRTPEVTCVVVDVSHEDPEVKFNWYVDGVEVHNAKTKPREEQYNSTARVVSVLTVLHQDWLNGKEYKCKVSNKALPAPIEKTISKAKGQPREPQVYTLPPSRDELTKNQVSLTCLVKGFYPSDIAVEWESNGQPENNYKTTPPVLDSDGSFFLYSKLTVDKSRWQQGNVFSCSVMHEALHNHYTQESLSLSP
# light: B1 light
# notes: Anti-glypican-3 IgG1 (G1d with K439E); same alteration in both H chains
# B7: GpH7-A5/GpH7-B3 variant Y300_11K/GpL16-k0 (heterodimerized antibody, He Ab) (antibody, human IgG1, kappa)
# heavy 1: not shown
# heavy 2: not shown
# light: B1 light
# notes: as for B1
# B8: GpH7-B3 variant Y296_19Q/GpL16-k0 (homodimerized antibody, Ho Ab) (antibody, human IgG1, kappa)
# heavy: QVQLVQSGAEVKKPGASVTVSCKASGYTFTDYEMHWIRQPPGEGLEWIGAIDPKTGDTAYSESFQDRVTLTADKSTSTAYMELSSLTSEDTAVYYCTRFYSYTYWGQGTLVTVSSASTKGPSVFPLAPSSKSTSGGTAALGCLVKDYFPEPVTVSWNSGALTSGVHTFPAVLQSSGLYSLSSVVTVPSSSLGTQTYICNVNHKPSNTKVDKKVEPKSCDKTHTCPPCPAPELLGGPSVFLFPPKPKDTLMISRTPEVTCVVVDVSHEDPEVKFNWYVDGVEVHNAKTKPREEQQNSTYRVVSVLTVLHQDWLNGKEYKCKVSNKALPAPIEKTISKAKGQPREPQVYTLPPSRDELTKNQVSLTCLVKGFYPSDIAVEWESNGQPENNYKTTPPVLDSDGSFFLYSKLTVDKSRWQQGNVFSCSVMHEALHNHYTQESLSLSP
# light: B1 light
# notes: as for B6
# B9: GpH7-A5/GpH7-B3 variant Y300_10E/GpL16-k0 (heterodimerized antibody, He Ab) (antibody, human IgG1, kappa)
# heavy 1: not shown
# heavy 2: not shown
# light: B1 light
# notes: as for B1
# B10: GpH7-B3 variant Y300_03V/GpL16-k0 (homodimerized antibody, Ho Ab) (antibody, human IgG1, kappa)
# heavy: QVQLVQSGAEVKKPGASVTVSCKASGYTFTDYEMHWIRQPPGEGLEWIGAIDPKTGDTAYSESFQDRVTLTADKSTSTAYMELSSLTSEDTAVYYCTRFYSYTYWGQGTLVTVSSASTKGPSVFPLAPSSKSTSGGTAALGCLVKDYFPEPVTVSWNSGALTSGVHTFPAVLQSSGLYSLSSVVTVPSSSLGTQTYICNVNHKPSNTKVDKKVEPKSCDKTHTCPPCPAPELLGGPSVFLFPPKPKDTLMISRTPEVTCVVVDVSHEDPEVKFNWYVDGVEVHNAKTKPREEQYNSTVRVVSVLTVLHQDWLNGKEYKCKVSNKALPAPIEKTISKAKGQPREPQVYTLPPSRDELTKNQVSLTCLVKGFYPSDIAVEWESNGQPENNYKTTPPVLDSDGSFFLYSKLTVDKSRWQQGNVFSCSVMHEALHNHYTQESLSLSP
# light: B1 light
# notes: as for B6
# B11: GpH7-A5/GpH7-B3 variant Y296_16H/GpL16-k0 (heterodimerized antibody, He Ab) (antibody, human IgG1, kappa)
# heavy 1: not shown
# heavy 2: not shown
# light: B1 light
# notes: as for B1
# B12: GpH7-B3 variant Y300_08L/GpL16-k0 (homodimerized antibody, Ho Ab) (antibody, human IgG1, kappa)
# heavy: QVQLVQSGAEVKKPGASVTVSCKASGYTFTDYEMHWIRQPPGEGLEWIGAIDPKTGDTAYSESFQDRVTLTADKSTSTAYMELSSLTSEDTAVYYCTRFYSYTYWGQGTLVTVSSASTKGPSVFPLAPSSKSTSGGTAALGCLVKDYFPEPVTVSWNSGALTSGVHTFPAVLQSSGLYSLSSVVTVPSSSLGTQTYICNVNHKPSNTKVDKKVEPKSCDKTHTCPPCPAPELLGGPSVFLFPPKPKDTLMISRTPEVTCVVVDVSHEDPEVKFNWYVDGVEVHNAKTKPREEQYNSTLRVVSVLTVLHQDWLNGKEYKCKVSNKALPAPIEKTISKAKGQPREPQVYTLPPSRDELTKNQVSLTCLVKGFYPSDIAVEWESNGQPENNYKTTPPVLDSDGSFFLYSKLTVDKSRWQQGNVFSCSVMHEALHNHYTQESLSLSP
# light: B1 light
# notes: as for B6
# B13: GpH7-B3 variant T335_16H/GpL16-k0 (homodimerized antibody, Ho Ab) (antibody, human IgG1, kappa)
# heavy: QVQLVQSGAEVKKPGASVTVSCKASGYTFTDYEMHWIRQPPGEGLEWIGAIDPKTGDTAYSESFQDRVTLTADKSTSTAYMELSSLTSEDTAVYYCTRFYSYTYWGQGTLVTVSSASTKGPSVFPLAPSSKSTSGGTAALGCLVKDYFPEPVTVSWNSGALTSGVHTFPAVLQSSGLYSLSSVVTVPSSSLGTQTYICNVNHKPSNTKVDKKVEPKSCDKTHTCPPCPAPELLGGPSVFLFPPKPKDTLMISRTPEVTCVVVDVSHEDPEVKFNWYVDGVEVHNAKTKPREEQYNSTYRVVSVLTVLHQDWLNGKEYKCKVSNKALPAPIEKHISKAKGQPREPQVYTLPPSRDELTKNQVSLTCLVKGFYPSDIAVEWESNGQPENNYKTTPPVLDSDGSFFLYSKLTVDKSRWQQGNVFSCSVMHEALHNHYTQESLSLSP
# light: B1 light
# notes: as for B6
# B14: GpH7-A5/GpH7-B3 variant Y300_02A/GpL16-k0 (heterodimerized antibody, He Ab) (antibody, human IgG1, kappa)
# heavy 1: not shown
# heavy 2: not shown
# light: B1 light
# notes: as for B1
# B15: GpH7-A5/GpH7-B3 variant T335_20W/GpL16-k0 (heterodimerized antibody, He Ab) (antibody, human IgG1, kappa)
# heavy 1: not shown
# heavy 2: not shown
# light: B1 light
# notes: as for B1
# B16: GpH7-A5/GpH7-B3 variant Y296_12R/GpL16-k0 (heterodimerized antibody, He Ab) (antibody, human IgG1, kappa)
# heavy 1: not shown
# heavy 2: not shown
# light: B1 light
# notes: as for B1
# B17: GpH7-A5/GpH7-B3 variant Y300_13S/GpL16-k0 (heterodimerized antibody, He Ab) (antibody, human IgG1, kappa)
# heavy 1: not shown
# heavy 2: not shown
# light: B1 light
# notes: as for B1
# B18: GpH7-B3 variant Y296_06M/GpL16-k0 (homodimerized antibody, Ho Ab) (antibody, human IgG1, kappa)
# heavy: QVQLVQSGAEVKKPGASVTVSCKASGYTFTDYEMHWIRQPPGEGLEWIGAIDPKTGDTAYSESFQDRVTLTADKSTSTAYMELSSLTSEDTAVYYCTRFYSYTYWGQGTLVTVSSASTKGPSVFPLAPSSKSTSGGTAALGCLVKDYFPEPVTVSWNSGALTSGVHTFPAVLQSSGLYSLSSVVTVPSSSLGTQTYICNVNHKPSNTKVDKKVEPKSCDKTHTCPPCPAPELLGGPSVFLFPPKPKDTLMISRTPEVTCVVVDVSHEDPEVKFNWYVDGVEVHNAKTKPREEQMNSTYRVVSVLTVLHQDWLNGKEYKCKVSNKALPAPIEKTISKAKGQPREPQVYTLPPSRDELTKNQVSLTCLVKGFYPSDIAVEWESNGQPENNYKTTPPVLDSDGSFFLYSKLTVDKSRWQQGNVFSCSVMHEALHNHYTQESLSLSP
# light: B1 light
# notes: as for B6
# B19: GpH7-B3 variant Y296_11K/GpL16-k0 (homodimerized antibody, Ho Ab) (antibody, human IgG1, kappa)
# heavy: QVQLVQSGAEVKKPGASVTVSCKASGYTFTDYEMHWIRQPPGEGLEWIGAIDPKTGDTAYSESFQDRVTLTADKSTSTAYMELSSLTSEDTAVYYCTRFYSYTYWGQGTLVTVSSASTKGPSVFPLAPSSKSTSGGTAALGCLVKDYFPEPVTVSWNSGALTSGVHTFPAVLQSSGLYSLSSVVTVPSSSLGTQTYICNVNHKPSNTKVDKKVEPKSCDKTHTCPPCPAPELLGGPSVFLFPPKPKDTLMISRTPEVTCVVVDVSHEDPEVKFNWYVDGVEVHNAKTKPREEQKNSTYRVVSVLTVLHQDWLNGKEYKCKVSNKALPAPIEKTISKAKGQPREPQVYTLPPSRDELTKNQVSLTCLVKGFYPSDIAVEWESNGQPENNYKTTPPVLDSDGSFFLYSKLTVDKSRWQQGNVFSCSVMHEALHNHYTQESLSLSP
# light: B1 light
# notes: as for B6
# B20: GpH7-B3 variant Y300_14T/GpL16-k0 (homodimerized antibody, Ho Ab) (antibody, human IgG1, kappa)
# heavy: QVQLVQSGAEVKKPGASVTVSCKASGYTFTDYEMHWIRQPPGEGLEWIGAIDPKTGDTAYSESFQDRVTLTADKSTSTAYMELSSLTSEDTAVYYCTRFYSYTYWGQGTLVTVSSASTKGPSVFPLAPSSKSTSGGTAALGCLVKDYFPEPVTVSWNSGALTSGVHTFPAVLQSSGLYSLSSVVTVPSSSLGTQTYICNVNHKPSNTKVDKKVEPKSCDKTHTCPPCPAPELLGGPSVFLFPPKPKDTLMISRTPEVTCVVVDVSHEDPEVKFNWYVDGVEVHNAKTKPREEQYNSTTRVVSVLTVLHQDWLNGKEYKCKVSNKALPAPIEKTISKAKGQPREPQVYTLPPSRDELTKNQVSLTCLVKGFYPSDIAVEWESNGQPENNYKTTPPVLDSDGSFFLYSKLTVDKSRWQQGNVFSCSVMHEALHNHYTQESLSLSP
# light: B1 light
# notes: as for B6
# B21: GpH7-A5/GpH7-B3 variant Y300_14T/GpL16-k0 (heterodimerized antibody, He Ab) (antibody, human IgG1, kappa)
# heavy 1: not shown
# heavy 2: not shown
# light: B1 light
# notes: as for B1
# B22: GpH7-A5/GpH7-B3 variant Y296_11K/GpL16-k0 (heterodimerized antibody, He Ab) (antibody, human IgG1, kappa)
# heavy 1: not shown
# heavy 2: not shown
# light: B1 light
# notes: as for B1
# B23: GpH7-B3 variant Y300_09D/GpL16-k0 (homodimerized antibody, Ho Ab) (antibody, human IgG1, kappa)
# heavy: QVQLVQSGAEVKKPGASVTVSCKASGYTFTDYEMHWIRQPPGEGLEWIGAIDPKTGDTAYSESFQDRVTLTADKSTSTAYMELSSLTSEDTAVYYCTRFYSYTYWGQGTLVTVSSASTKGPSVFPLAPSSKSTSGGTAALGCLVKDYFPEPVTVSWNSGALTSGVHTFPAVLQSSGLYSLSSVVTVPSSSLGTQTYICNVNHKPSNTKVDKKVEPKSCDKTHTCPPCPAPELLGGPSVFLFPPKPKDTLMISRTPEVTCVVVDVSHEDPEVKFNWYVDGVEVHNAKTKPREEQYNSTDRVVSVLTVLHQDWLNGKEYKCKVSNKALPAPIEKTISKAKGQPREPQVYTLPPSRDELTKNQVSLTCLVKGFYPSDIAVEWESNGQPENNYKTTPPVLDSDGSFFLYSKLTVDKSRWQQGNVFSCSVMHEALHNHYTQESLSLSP
# light: B1 light
# notes: as for B6
# B24: GpH7-A5/GpH7-B3 variant Y300_09D/GpL16-k0 (heterodimerized antibody, He Ab) (antibody, human IgG1, kappa)
# heavy 1: not shown
# heavy 2: not shown
# light: B1 light
# notes: as for B1
# B25: GpH7-B3 variant Y296_20W/GpL16-k0 (homodimerized antibody, Ho Ab) (antibody, human IgG1, kappa)
# heavy: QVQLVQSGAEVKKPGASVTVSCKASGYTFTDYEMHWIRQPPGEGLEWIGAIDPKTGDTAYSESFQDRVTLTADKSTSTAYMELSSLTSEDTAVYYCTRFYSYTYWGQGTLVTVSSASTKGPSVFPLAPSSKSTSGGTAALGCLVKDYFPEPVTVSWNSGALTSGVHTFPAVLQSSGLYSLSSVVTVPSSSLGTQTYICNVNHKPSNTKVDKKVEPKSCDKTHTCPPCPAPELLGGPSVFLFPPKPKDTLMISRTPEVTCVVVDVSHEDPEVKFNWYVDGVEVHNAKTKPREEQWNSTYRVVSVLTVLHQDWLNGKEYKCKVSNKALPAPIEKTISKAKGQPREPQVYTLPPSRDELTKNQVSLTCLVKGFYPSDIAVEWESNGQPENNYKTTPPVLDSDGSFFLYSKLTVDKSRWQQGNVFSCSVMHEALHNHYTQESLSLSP
# light: B1 light
# notes: as for B6
# B26: GpH7-A5/GpH7-B3 variant Y300_06M/GpL16-k0 (heterodimerized antibody, He Ab) (antibody, human IgG1, kappa)
# heavy 1: not shown
# heavy 2: not shown
# light: B1 light
# notes: as for B1
# Legend:
# FcγRIa [1] = molecular target: T1, FcγRIa (human, UniProt P12314 16-292); assay: SPR (Biacore), antibody captured on antigen-peptide chip, FcγRIa as analyte; binding activity relative to control GpH7-A5/GpH7-B3/GpL16-k0 (HeCon Ab) x100
# T1 construct: extracellular domain; Soluble extracellular domain with C-terminal His tag, expressed in FreeStyle293 cells; analyte in Biacore; also called FcgRI; CD64; not shown: His tag attached to the C terminus
# Description: (§1) Analysis of interaction between objective antibody and the FcγR was carried out using Biacore T100 (GE Healthcare). HBS-EP+ (GE Healthcare) was used as the running buffer, and the measurement temperature was set to 25° C. Chips produced by immobilizing the antigen peptide by the amine coupling method to a Series S Sencor Chip CM5 (GE Healthcare), or alternatively, chips produced by allowing preliminarily biotinylated antigen peptides to interact with and immobilize onto a Series S Sensor Chip SA (certified) (GE Healthcare) were used. Antibodies of interest were captured onto an antigen peptide-immobilized chip, and allowed to interact to each FcγR diluted with running buffer. To regenerate and repeatedly use the chip, the antibodies captured on the chip were washed off by reacting 10 mM glycine-HCl, pH 1.5.
# FcγRIa [2] = molecular target: T1, FcγRIa; assay: SPR (Biacore), antibody captured on antigen-peptide chip, FcγRIa as analyte; binding activity relative to control GpH7-B3/GpL16-k0 (HoCon Ab) x100
# Description: as §1
# T1 sequence (P12314 16-292): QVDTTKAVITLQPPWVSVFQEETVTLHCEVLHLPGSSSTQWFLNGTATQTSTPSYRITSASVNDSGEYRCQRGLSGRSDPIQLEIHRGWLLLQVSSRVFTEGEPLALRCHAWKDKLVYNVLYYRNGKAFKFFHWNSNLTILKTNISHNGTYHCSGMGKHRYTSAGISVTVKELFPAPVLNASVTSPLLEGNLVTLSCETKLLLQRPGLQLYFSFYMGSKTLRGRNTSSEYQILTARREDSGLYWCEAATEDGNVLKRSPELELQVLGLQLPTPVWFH
Binder,He/Con_1a (FcγRIa [1]),Ho/Con_1a (FcγRIa [2])
B1,104 % of control (=100),
B2,111 % of control (=100),
B3,105 % of control (=100),
B4,113 % of control (=100),
B5,106 % of control (=100),
B6,,110 % of control (=100)
B7,107 % of control (=100),
B8,,104 % of control (=100)
B9,114 % of control (=100),
B10,,112 % of control (=100)
B11,106 % of control (=100),
B12,,109 % of control (=100)
B13,,104 % of control (=100)
B14,112 % of control (=100),
B15,106 % of control (=100),
B16,106 % of control (=100),
B17,111 % of control (=100),
B18,,104 % of control (=100)
B19,,102 % of control (=100)
B20,,110 % of control (=100)
B21,112 % of control (=100),
B22,105 % of control (=100),
B23,,111 % of control (=100)
B24,112 % of control (=100),
B25,,106 % of control (=100)
B26,112 % of control (=100),
